41 sequences from the nanobody polyreactivity screen of Harvey et al. (2022) can be followed below.

This data set is described as follows: yeast display, Sf9 membrane polyspecificity reagent, FACS + sequencing; frameworks hold sequencing errors. A digest of the protocol: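 Polyreactivity labels are assigned by the sorting gate from which each nanobody was recovered. The gates were low and high (top ~1%), set on anti-HA fluorescence for expression and streptavidin fluorescence for reagent binding. Before sorting, galactose-induced (36–48 hours) yeast display cells were stained for 1 hour at 4 °C with 10% biotinylated, detergent-solubilized Sf9 membrane reagent.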
Regarding “QVQLVESVGGLVQGGGSLRLSCAASGINFYRYALGWYRQAPGKERELVAAINRSGDSTYYADSVKGRFTISRDNAKNTVYLQMNSLKPEDTAVYSCAAQHSIYRNPGLDDYWGQGNQVTVSS”, the “polyreactivity (PSR sort gate)” value was “high polyreactivity”.

“QVQLVESVGRLVQAGGSLRLSCDASGSIFYYAMGWYRQAPGKERELVAAITWRGGRTYYADSVKGRFTITRDNEKNTVYLQLNSLKPEDTAVYNCNAVAPCKYNHWGQGTQVTVSS”: the “polyreactivity (PSR sort gate)” value is on record as “high polyreactivity”.

With “QVQLVESVGVLVQAGGSLRLSCAASGITFSSYAMGWYRQAPGKERELVAAITRTGGRTYYADSVKGRFTISRDNAKNTVYLQMNRLKPEDTAVYYCAAYYIAYYYWGQGTQVTVSS”, the “polyreactivity (PSR sort gate)” value is reported as “high polyreactivity”. In the case of “QVQLVESVRGFDQAGVSLRLSCAASGSIFYHNAKGLYRQATVTERELVGAITSDGSTYYADSVKGRFTISRDNGKNTVYLLMNSLKPEDTAVFYCAAEYYGHRYDYLGQGTQVTVSS” it was “low polyreactivity”; in that of “QVQLVESVVGLVQAGGSLLLSCDASGGIFLRYAMGSYRQAPGKERELVARISNRGGSTYYADSVKGRFTISRDYAKNTVYLQMNSLKPEDTAVYYCAADRWSSSRGDYWGQGTQVTVSS”, “low polyreactivity”.

For “QVQLVESVVGLVQAGGSLRLSCAASGSTFYTYAMGWYRQAPGKERELVAAISYRGGSTYYADSVKGRFTISRDNAKNTVDLQMNSLKPEDTAVFYCNVDGVVVGNKRGGYDYWGQGTQVTVSS”, the “polyreactivity (PSR sort gate)” value is reported as “low polyreactivity”. For the sequence “QVQLVESVVGLVQAGGSLRLSCASSGSIFYYYTMGWYRHAPGKERELVAAITRGGSTNYADSVKGRFTISRDNAKNTGYLQMNSLKPEDTAVYYCAVAWYRGWYRYDYWGQGTQVTVSS”, the “polyreactivity (PSR sort gate)” value is “high polyreactivity”. For the sequence “QVQLVESVVGLVQAGGSLRLSSAASGGTFDLYAMGWYRQAPGKERELVAAISRRGSSTYYADSVKGRFTISRDNAKNTVYLQMTSLKPEDTAVYFCNNRYYWHGINEYWGQGTQVTVSS”, the “polyreactivity (PSR sort gate)” value is on record as “high polyreactivity”. In the case of “QVQLVESVVGLVQEGGSLRLSCAASGRIFAWYAMGWYRQAPGKERELVAAISDSGGSTYYADSVKGRFTISRDNAKNTVYLQMNSLKPEDTAVYYCAAQYVIRITFYATYWDDYWGQGTQVTVSS” it was “low polyreactivity”. In the case of “QVQLVESWAGVVQAGGSLRLSCAASGSIFRNAMGWYRQAPGKERELVAGIRWSYGSTNYADSVKGRFTISRDNAKNSVYLQMNSLKPEDTAVYYCAKGAYYARRMYFWGQGTQVTVSS” it was “low polyreactivity”; in that of “QVQLVESWGGFVQAGGSLRLSCAASGSIFKGYVMGWYRQAPGKERELVAAISGSGGSTYYADSVKGRFTISRDNAKNTVYIQMNSLKPEDTAVYYCAARYRYWGGSGFKGFDYWGQGTQVTVSS”, “high polyreactivity”; in that of “QVQLVESWGGIVQAGGSLRLSCAASGSTFHDYAMGWYRQAPGKERELVAAISRRASRTYYADSVKGRFTISRDNAKNTDFLQMNSLKPEDTAVYDCNTDQSQKTVVYDYWGQGTQVTVSS”, “high polyreactivity”. In the case of “QVQLVESWGGLFQAGGSLRLSCAASGRIWWNAMGWYIQSPGKERELVAAIRWSGGITRYADSVKGRFTFSGDNAKNTVYLQMKSLKPEDTAVYYCAARRNTVTGYQYYYWGQGTQVSVSS” it was “high polyreactivity”.

For “QVQLVESWGGLVKAGGSLRLSCAASGRTIRGYTMGWNRQAPGKQRELVAAISQSGGRTHYADSVKGRFTISRDNAKNTVYLEMKSLKPEDTAVYYCAARGQRERSYPLYDYWGQGTQVTVSS”, the “polyreactivity (PSR sort gate)” value is on record as “high polyreactivity”.

As to “QVQLVESWGGLVLAGGRLRLSCAASGSTFPYNAMGWYRQAPGKERELVAVISQRGGSTYYADSLKGRFTISRDNAKNSVYLQMKSLKPEDTAVYYCAAEYIVTYGYDYWGQGTQVTVSS”, the “polyreactivity (PSR sort gate)” value is on record as “high polyreactivity”. To “QVQLVESWGGLVQAGGSLPLRCAASGRTFVQYAMGWYRQAPGKERELVAAISLSGGRTYYADSVKGRFTISRDNAKNTVYLQMNSLKPEDTAVYYFSARDSSRYYWGQGTQVTVSS” belongs “high polyreactivity”; to “QVQLVESWGGLVQAGGSLRLSCAASGFNPNAMGWYRQAPGKERELVAAISSNGGSTYYADSVKGRFTISRDNAKKTVYLQMNSLKPEDTAVYYCNRDQWRHTPAEGYYWGQGTQVTVSS”, “low polyreactivity”.

On to “QVQLVESWGGLVQAGGSLRLSCAASGFTFYGYAMGWYRQAPGKERELVAAISRRSSSTYYADSVKGRFTISRDNAKNTVYLQMNSLKPEDTAVYYCNTVFQLSGYAAGVDYWGQGTQVTVSS”, for which the “polyreactivity (PSR sort gate)” value is listed as “high polyreactivity”. In the case of “QVQLVESWGGLVQAGGSLRLSCAASGGIFWNYAMGWYRQAPGKERELVATISSGGSTKYADSVKGRFTISRDNAKNTVYLQMNSLKPEDTAVYYCNKVFPNLYIYVVRGLIEMDYWGQGTQVTVSS” it was “low polyreactivity”.

Turning to “QVQLVESWGGLVQAGGSLRLSCAASGNIFYFYAMGWYRQAPGKERELVAAITSVGSTKYADSVKGRFTISRDNAKNTVYLEMNCLKPEDTAVYYCAARRWRSYYYWGQGTHVTVSS”, the “polyreactivity (PSR sort gate)” value is given as “high polyreactivity”. In the case of “QVQLVESWGGLVQAGGSLRLSCAASGNTFIEYAMGWYRQAPGKERELVAAINWNGGSTYYADSVKGRFTISRDNAKNTVYFQMNSLTPEDTAVYYCAADTFRLYGALAEYDYWGQGTQVTVSS” it was “low polyreactivity”; in that of “QVQLVESWGGLVQAGGSLRLSCAASGRIFWKYTMGWYRQAPGKERELVAAIRSGGGSTDYADSVKGRFTISRDNAKNSVYLQMNRLIPEDTAGYYCAAEPSQRYPLSGYVYWGQGTQVTVSS”, “low polyreactivity”. In the case of “QVQLVESWGGLVQAGGSLRLSCAASGRIFYDYAMGWYRQAPGKERELVAAISKGGGSTYYADSVKGRFTISRDNAKKTVYLQMNSLKAEDTAVYFCAASTSHTTDTRYDYWGQGTQVTVSS” it was “low polyreactivity”. As to “QVQLVESWGGLVQAGGSLRLSCAASGRTFFYYAMGWYRQAPWKERELVAAISKSGGRTYYADSVKGRFTISRDNAKNTVYLQMNSLKPEDTAVYYCATLAQWYDRELDYWGQGTQVTVSS”, the “polyreactivity (PSR sort gate)” value is on record as “high polyreactivity”. To “QVQLVESWGGLVQAGGSLRLSCAASGRTFYSYVMGWYRKAPGKEREMVAAITSGGSTYYADSVKGRFTISRDNAKNTVYLQMNSLKPEDTAVYYCAADGDYASYDTFWYWAPEYDYWGQGTQVTVSS” belongs “low polyreactivity”; to “QVQLVESWGGLVQAGGSLRLSCAASGSIFGENAMGWYREAPRKEMELVAAITSGGSTDYADSVKGRFTISRDNAKNTVYLQMNSPKVEDTAVYYCAASGRVGPGYCYDSWGQGTQVTVSS”, “low polyreactivity”; to “QVQLVESWGGLVQAGGSLRLSCAASGSIFPWYAMGWYREAPGKERELVAAISKSGAGTYYADSVKGRFTISRDNAKNTVYLQMNSLKPEDTAVYYCNAVYRKTSYGYWGQGTQVTVSS”, “high polyreactivity”.

In the case of “QVQLVESWGGLVQAGGSLRLSCAASGSTFRRNAMGCYRQAPGKERELVAAITRSGDSTYYADSVKGRFTISRDYAKNTVYLQMNSLKPEDTAVYYCAADSSRYRYRNQGYYWGQGTQVTVSS”, the “polyreactivity (PSR sort gate)” value was “high polyreactivity”. To “QVQLVESWGGLVQAGGSLRLSCAASGSTFSLYTMGWYRQAPGKERELVATIDSGGSTNYADSVKGRFTISRDNAKNTVYLQMNSLKPEDTAVYYCVDYYNGYTHNYNYWGQGTQVTVSS” belongs “low polyreactivity”; to “QVQLVESWGGLVQAGGSLRLSCAASGSTIAYYVLGWYRQAPRKERELVAAINFSGDSTYYADSVKGRFTNSRDNAKNTVNLQMNSLKPEDTAVYYCAVDWGEYIDTSVKRDISYYWGQGTQVTVSS”, “low polyreactivity”. To “QVQLVESWGGLVQAGGSLRLSCAASGYISNAMGWYRQAPGKERELVAVITRGGSTNYADSVKGRFTISRDNAKNTVYLQMNSLKPEDTAVYYCAKDVPYRRVRSEYWGQGTQVTVSS” belongs “low polyreactivity”. In the case of “QVQLVESWGGLVQAGGTLRLSCAASGSTFTLNCMGWYRQAPGKERELVASITWSGGSTYYADSVKGRFTISRDNAKNTVYLQMNSLKPEDTAVYYCADDEKLYITGYDYWGQGTQVTVSS”, the “polyreactivity (PSR sort gate)” value was “low polyreactivity”.

For the sequence “QVQLVESWGGLVQEGGSLRLSCAASGSTFGPYAMGWYRQAPGKERELVAAITESGDSTYYADSVKGRFTISRDNAKNSVYLQMNSLKPEDTAVYYCAATRGSSEYYYWGQGTQVTVSS”, the “polyreactivity (PSR sort gate)” value is reported as “low polyreactivity”.

As to “QVQLVESWGGLVQSGGSLRLSCAASGFTFGHNAMGWYIQAPGKERELVAAIDTSGGSTYYADSVKGRFTISRDNEKNTVYLKMNSLKPEDTAVYYCAAFSASYGGYDYWGQGTQVTVSS”, the “polyreactivity (PSR sort gate)” value was “high polyreactivity”. To “QVQLVESWGGLVQSGGSLRLSCAASGSIFSFYPMGWYRQAPGKERELVAAISSGGSTYYADSVKGRFTISRDNAKNTVYLQMNSLKPEDTAVYYCAADQHIRVSWYLQMYYWGQGTQVTVSS” belongs “low polyreactivity”; to “QVQLVESWGGVVQAGGSLRLSCAASGRIFQHYAMGWYRQAPGKERELVAAISWRGGSTYYADSVKGRFTISRDNAKNTVFLQMNSLKPEDTAVYYCAAGYRGRIPGFDYWGQGTQVTVSS”, “high polyreactivity”; to “QVQLVESWGRLVQAGGSLRLSCAASGSTFTGNAMGWYRQAPGKERELVAVISSGASTNYADSVKGRFTISRDNAKNSVSLQMNSLKAEDSAVYYCAADSWDYDSRMDYWGQGTHVTVSS”, “low polyreactivity”. In the case of “QVQLVESWGVLVQAGGSLRLSCAASGSIFYYYVMGWYRQAPWKERELVAAISYGGGTNYADSVKERFTISRDNAKNTVYLQMISLKPEDTAVYYCNVVTYRRFDYWGQGTQVTVSS” it was “low polyreactivity”.

As for “QVQLVETCGGLDQAGVSLRLSCAASGIIFKTYAMGWYRQAPGKETEYVAPISVSGGGTYYADSVKGRFTISRDNAKNTVYLQMNSPKPEDTAVYYCAARSWYWRYYTLNPYDYWVQGTQVTVSS”, the “polyreactivity (PSR sort gate)” value is recorded as “high polyreactivity”.

As to “QVQLVETGGGLFQAGGSLRISCAASGSTFYTYAMGWYRQSPGKERELVAAITRRGGRTYYADSVKGRFTISRDNAKNTVYLQMNSLKPEDTAVYYCAADSRTNGYDYWGQGTQVTVSS”, the “polyreactivity (PSR sort gate)” value was “high polyreactivity”. In the case of “QVQLVETGGGLVHAGGSLRLSCAASGFIFVVNAMGWYRQAPGKERELVAAITRNGGSTYYADSVKGRFSISRDNEKNTVYLQMNSLKPEDTAVYYCATYVRRAPSTFDVDYWGLGTQVTVSS” it was “high polyreactivity”.
